# Measurements published in patent US9504755B2, “Multi-arm polymeric alkanoate conjugates” (Nektar Therapeutics, priority 2008, dated 2016).
# “And” between values parts separate entries of the source, which are not always exact repeats. Equal entries are not always repeated. Marks after values point to notes of the source that are not given here.
# Legend:
# H460 tumors = experiment: Anti-tumor activity in H460 non-small cell lung mouse xenograft model; format: in vivo
# Description: (§1) H460, LS174T and LoVo tumors were established in female athymic nude mice. Groups of 10 mice received a total of three single doses of 4-ARM-PEG20K-BA-DOC or docetaxel administered every 7 days (q7d×3) at several doses up to a maximum tolerated dose (MTD). Control groups received no treatment after tumor implant. Animals were weighed daily for the first five days and twice weekly thereafter. Tumor volumes were measured twice weekly after the first drug injection.
# (§2) Anti-tumor activity was measured as changes in tumor volume, time to reach endpoint, and complete or partial tumor regression.
# (§3) Treatment outcome was evaluated by Tumor Growth Delay (TGD), which is defined as the increase in median time to endpoint in a treatment group compared to the control group. Here it is expressed as % TGD, as a percentage to the median time to endpoint of the control group.
# (§4) A tumor whose volume was reduced to 50% or less for three consecutive measurements compared to its volume on Day 1 was considered to be in partial regression. Complete regression was defined as volume […] 13.5 mm^3 for three consecutive measurements.
# (§5) Acceptable toxicity was defined as a group mean body weight (BW) loss of less than 20% during the study and not more than one treatment-related death among ten treated animals.
# LS174T tumors = experiment: Anti-tumor activity in LS174T colorectal mouse xenograft model; format: in vivo
# Description: as §1, §2, §3, §4, §5
# LoVo tumors = experiment: Anti-tumor activity in LoVo colorectal mouse xenograft model; format: in vivo
# Description: as §1, §2, §3, §4, §5
# [1] = Pharmacokinetics after IV infusion in Sprague-Dawley rats; format: in vivo, rat
# Description: The objective of this study was to assess the pharmacokinetics and excretion of docetaxel and 4-ARM-PEG20K-BA-docetaxel after intravenous infusion to rats.
# Pharmacokinetics of 4-ARM-PEG20K-BA-docetaxel and docetaxel were evaluated in male rats (15 rats/dose level) dosed with 5, 10, and 15 mg/kg (30, 60, 90 mg/m^2) 4-ARM-PEG20K-BA-docetaxel or 5 mg/kg (30 mg/m^2) docetaxel. 4-ARM-PEG20K-BA-docetaxel and docetaxel were administered via a femoral vein catheter as 30-min intravenous infusions at 4 mL/kg. Blood samples (n=15 timepoints with n=5 samples/dose level/timepoint) were obtained by jugular venipuncture between pre-dose and 144 hours post-dose.
# [2] = 18.7 mg/kg (56.1 mg/m^2), q7d×3
# [3] = 25 mg/kg (75 mg/m^2), q7d×3 (MTD of docetaxel)
# [4] = 33.3 mg/kg (99.9 mg/m^2), q7d×3
# [5] = 16.9 mg/kg (50.7 mg/m^2), q7d×3
# [6] = 22.5 mg/kg (67.5 mg/m^2), q7d×3
# [7] = 30 mg/kg (90 mg/m^2), q7d×3 (MTD of docetaxel)
# [8] = 40 mg/kg (120 mg/m^2), q7d×3 (MTD of 4-ARM-PEG20K-BA-DOC)
# [9] = 40 mg/kg (120 mg/m^2), q7d×3 (exceeded MTD)
# [10] = male rats, average over 5, 10, 15 mg/kg
# [11] = male rats, single IV dose 5 mg/kg
# [12] = male rats, single IV dose 10 mg/kg
# [13] = male rats, single IV dose 15 mg/kg
substance,measurement,setting,value
4-ARM-PEG20K-Butanoate-Linked Docetaxel Conjugate [4-ARM-PEG20K-BA-DOC],BW Loss (%),"H460 tumors; 14 mg/kg (42 mg/m^2), q7d×3",0/0%
same,No. Surviving/No. Treated Mice,"H460 tumors; 14 mg/kg (42 mg/m^2), q7d×3",10/10
same,TGD (%),"H460 tumors; 14 mg/kg (42 mg/m^2), q7d×3",−1%
same,BW Loss (%),H460 tumors; [2],6.2%
same,Day of BW Nadir,H460 tumors; [2],22
same,No. Surviving/No. Treated Mice,H460 tumors; [2],10/10
same,TGD (%),H460 tumors; [2],56* %
same,Tumor growth delay (%),"H460 tumors; 19 mg/kg (58% MTD), q7d×3",56%
same,Day of BW Nadir,"H460 tumors; 25 mg/kg (75 mg/m^2), q7d×3",29
same,No. Surviving/No. Treated Mice,"H460 tumors; 25 mg/kg (75 mg/m^2), q7d×3",10/10
same,BW Loss (%),H460 tumors; [3],10.4%
same,TGD (%),H460 tumors; [3],72** %
same,Decrease in body weight,H460 tumors; 33 mg/kg (MTD),14.2%
same,Tumor growth delay (%),"H460 tumors; 33 mg/kg (MTD), q7d×3",122%
same,BW Loss (%),H460 tumors; [4],14.2%
same,Day of BW Nadir,H460 tumors; [4],22
same,No. Surviving/No. Treated Mice,H460 tumors; [4],10/10
same,TGD (%),H460 tumors; [4],122** %
same,antitumor activity below MTD,"H460 tumors; 4-ARM-PEG20K-BA-DOC at 19 mg/kg (58% of its MTD), docetaxel doses less than 25 mg/kg",retained significant antitumor activity
same,% TGD fold greater than for docetaxel,H460 tumors; each at MTD,2.5 fold
same,BW Loss (%),LS174T tumors; [5],12.4%
same,Day of BW Nadir,LS174T tumors; [5],23
same,No. Surviving/No. Treated Mice,LS174T tumors; [5],9/10
same,PR (partial regressions),LS174T tumors; [5],0
same,TGD (%),LS174T tumors; [5],126* %
same,BW Loss (%),LS174T tumors; [6],11.1%
same,Day of BW Nadir,LS174T tumors; [6],23
same,No. Surviving/No. Treated Mice,LS174T tumors; [6],10/10
same,PR (partial regressions),LS174T tumors; [6],0
same,TGD (%),LS174T tumors; [6],169* %
same,Day of BW Nadir,"LS174T tumors; 30 mg/kg (90 mg/m^2), q7d×3",23
same,No. Surviving/No. Treated Mice,"LS174T tumors; 30 mg/kg (90 mg/m^2), q7d×3",9/10
same,BW Loss (%),LS174T tumors; [7],17.9%
same,TGD (%),LS174T tumors; [7],250%
same,Day of BW Nadir,"LS174T tumors; 40 mg/kg (120 mg/m^2), q7d×3",23
same,No. Surviving/No. Treated Mice,"LS174T tumors; 40 mg/kg (120 mg/m^2), q7d×3",10/10
same,BW Loss (%),LS174T tumors; [8],18.8%
same,TGD (%),LS174T tumors; [8],266%
same,% TGD fold greater than for docetaxel,LS174T tumors; each at MTD,1.6 fold
same,BW Loss (%),LoVo tumors; [5],7.0%
same,Day of BW Nadir,LoVo tumors; [5],21
same,No. Surviving/No. Treated Mice,LoVo tumors; [5],10/10
same,PR (partial regressions),LoVo tumors; [5],0
same,TGD (%),LoVo tumors; [5],64** %
same,BW Loss (%),LoVo tumors; [6],11.0%
same,Day of BW Nadir,LoVo tumors; [6],24
same,No. Surviving/No. Treated Mice,LoVo tumors; [6],10/10
same,PR (partial regressions),LoVo tumors; [6],0
same,TGD (%),LoVo tumors; [6],50* %
same,BW Loss (%),"LoVo tumors; 30 mg/kg (90 mg/m^2), q7d×3",16.2%
same,Day of BW Nadir,"LoVo tumors; 30 mg/kg (90 mg/m^2), q7d×3",24
same,No. Surviving/No. Treated Mice,"LoVo tumors; 30 mg/kg (90 mg/m^2), q7d×3",10/10
same,PR (partial regressions),"LoVo tumors; 30 mg/kg (90 mg/m^2), q7d×3",0
same,TGD (%),"LoVo tumors; 30 mg/kg (90 mg/m^2), q7d×3 (MTD for both agents)",128%
same,Day of BW Nadir,"LoVo tumors; 40 mg/kg (120 mg/m^2), q7d×3",24
same,No. Surviving/No. Treated Mice,"LoVo tumors; 40 mg/kg (120 mg/m^2), q7d×3",10/10
same,BW Loss (%),LoVo tumors; [9],22.6%
same,TGD (%),LoVo tumors; [9],148% and 148 ^1%
same,"CL, analyte conjugate, average (±SD)",[1]; [10],0.33 mL/min/kg
same,"Vss, analyte conjugate, average (±SD)",[1]; [10],0.61 ± 0.17 L/kg
same,"AUCinf, analyte conjugate",[1]; [11],250.374 µg·h/mL
same,"AUClast, analyte conjugate",[1]; [11],226.203 µg·h/mL
same,"AUClast, analyte docetaxel",[1]; [11],1.711 µg·h/mL
same,"CL, analyte conjugate",[1]; [11],0.33 mL/min/kg
same,"Cmax, analyte conjugate",[1]; [11],40079 ng/mL
same,"Cmax, analyte docetaxel",[1]; [11],122 ng/mL
same,"T1/2, analyte conjugate",[1]; [11],73 h
same,"Tmax, analyte conjugate",[1]; [11],0.5 h
same,"Tmax, analyte docetaxel",[1]; [11],0.5 h
same,"Vss, analyte conjugate",[1]; [11],0.8 L/kg
same,"AUCinf, analyte conjugate",[1]; [12],437.912 µg·h/mL
same,"AUClast, analyte conjugate",[1]; [12],419.132 µg·h/mL
same,"AUClast, analyte docetaxel",[1]; [12],3.003 µg·h/mL
same,"CL, analyte conjugate",[1]; [12],0.38 mL/min/kg
same,"Cmax, analyte conjugate",[1]; [12],70795 ng/mL
same,"Cmax, analyte docetaxel",[1]; [12],176 ng/mL
same,"T1/2, analyte conjugate",[1]; [12],59 h
same,"Tmax, analyte conjugate",[1]; [12],0.5 h
same,"Tmax, analyte docetaxel",[1]; [12],2.0 h
same,"Vss, analyte conjugate",[1]; [12],0.55 L/kg
same,"AUCinf, analyte conjugate",[1]; [13],895.159 µg·h/mL
same,"AUClast, analyte conjugate",[1]; [13],847.993 µg·h/mL
same,"AUClast, analyte docetaxel",[1]; [13],3.743 µg·h/mL
same,"CL, analyte conjugate",[1]; [13],0.28 mL/min/kg
same,"Cmax, analyte conjugate",[1]; [13],138296 ng/mL
same,"Cmax, analyte docetaxel",[1]; [13],273 ng/mL
same,"T1/2, analyte conjugate",[1]; [13],63 h
same,"Tmax, analyte conjugate",[1]; [13],0.5 h
same,"Tmax, analyte docetaxel",[1]; [13],1.0 h
same,"Vss, analyte conjugate",[1]; [13],0.47 L/kg
same,plasma docetaxel AUC compared with docetaxel,"[1]; rats, equivalent doses (5 mg/kg)",similar
